Experimental data reported in patent US12674174B2, “Protoporphyrinogen oxidase (PPO) resistance plant” (PLANTARC BIO LTD., priority 2022, dated 2026).

Key:
[1] = test system: transgenic Arabidopsis plants; type: in vivo; details: for level of resistance against Aurora (in words): Aurora 0.01% to 0.5%, compared to control plants; for level of resistance to Strike, more tolerant to treatment as compared to control plants: 5 orders of magnitude
Excerpt: (SEQ ID NO: 8 was cloned from SEQ ID NO: 1, SEQ ID NO: 9 was cloned from SEQ ID NO: 2, SEQ ID NO: 10 was cloned from SEQ ID NO: 3, SEQ ID NO: 11 was cloned from SEQ ID NO: 4, SEQ ID NO: 12 was cloned from SEQ ID NO: 5, SEQ ID NO: 13 was cloned from SEQ ID NO: 6 SEQ ID NO: 14 was cloned from SEQ ID NO: 7). […] FIG. 1B summarizes the results of the three experiments described hereinabove.

[2] = test system: Arabidopsis plants; details: yes/no

Molecule	level of resistance against Aurora (in words) [1]	level of resistance against Strike (in words) ([1]; Strike 0.01% to 1%)	level of resistance to Strike, more tolerant to treatment as compared to control plants ([1]; Strike 0.01% to 1%)	High concentration herbicide tolerance ([2]; Table 1)	Herbicide tolerance ([2]; Table 2, FIG. 6C legend: Star 1.25 kg/hectare)
SEQ ID NO: 12: PPO from Fusarium sp. fused to cTP. Chimeric Protein; cloned from SEQ ID NO: 5 (protein) MELSLLRPTTQSLLPSFSKPNLRLNVYKPLRLRCSVAGGMSRRRAESTAVALLSSPAKSHLQPPLRRLDGIRSLSTSSALARRRPIVACNYTQSFNNGRTFVSQAKDANIAVLGGGLTGLTAAYYLAKKLPSTAKITLYESSDRLGGWIKTDRVPVDIEGKSGTLSFERGARSLSSLVGNTFRFDDLVLYDLALDLGLAINSPSQQPRYIYYPDHLVPTPPNISIFDMLREPLYLEIIGASLGLGINSVRKRTLPSKDYSVSEWLYAVSNSRKGIGNLASAMMHGIYGGDIHKLSARCVLDRLYWGWYLPNPGLSVRPMPVAEQALLETLGQDKQIQKMALEPRSALVDFGDKGMESLPQALSAALREQPNITIKTGEAVQDVVYNKANQQVHITSSNAKDNSKHNSKVYDKVISTLSAQDIALLAGNKLPSLSTAHSVSVMTVNIWFPQENLKPPGFGYLIPNSVAPELNPEHALGVFFDSDVQTRSKDEPAGTKLFVLMGGHYYDRPDVTPPTEEEAIIQARNLLERHLGIPRDAPAYATANFARECIPQHYVGHQDRLKAAHTELTRNFGGRLAVAGGSFTRIGAVASLRAGYDAATAAKKGLEATGLEYLNDIQQFSVVATSQIPVRHFK	not against Aurora	high levels of resistance	about 10^5	–	–
SEQ ID NO: 6: PPO from Rhizopus sp. Protein. (protein, listed as Rhizopus sp.) MSSVAILGGGISGLSAAYYLARMAPPTTKITLIEGKKRLGGWIESRRVTPGHYDNIHQLPKNNSKENTILFEAGPRTLRPEGSNGAILLEMIRHLELNNENLMSVSKSHPSARHRYIYYKDKINTLPSDLQSFLLNKPPVLKSVPLAALLEPLKPSRFDKDGIAKDGIQDESIYSFMTRRFNEHTAIHLMGAVIHGIYAGDIKSLSLQSTLRSLYEAERIYGSAVLGMMKGASQVTTSVRERGMAARSRKEDPEWFGRMEKMSVIGFKSGMDTLPHQITSWLEQCPNVEVITDDPAEHIEIAHENKIKTQKGKTVHADHIISTLPSPVLERLVQHQPVLPHLSYNPSADVAVVNLAYSPDEMKLQYDGFGFLTPHRDTPYGNPLPGTLGVVFDSNALPIESERAVKLTAMIGGSDWKDAFGNVPIDELEPKVALDYTRKAVGTFLDIHAEPRYSMVNLQKQCIPQYLVGHQDRMLSLHHAIKKNYGHALSVSGASYLGVSVPDCIKNSRMLVEELLVSGALGSRQKVVTGLGKLEEQPTVDEMRDNARLSRGNTSVIMKS	very high levels of resistance	–	about 10^5	–	–
SEQ ID NO: 2: PPO from Aspergillus sp. Protein. (protein, listed as Aspergillus sp.) MRLPCASSRAFRQVRAPLALLHRGQRHAVHTKQFDAAVIGGGITGLTAAYQLSRDPSCSKVTLYEKSSHLGGWLSSEQIPVPGGHVVFEYGPRTLRTSSPSCLPMMDLIMNLDLLDDVLICDKKSPAAQNRYIYYPDHLVRLPFPPTEGLLKTAWTLLMEPLFETFLYSAIFEKPKRAENTHILSRDESVADFVSRRFSPKISENLASAVMAGIFAGDVNRLSAEMAIGYVRELEKRYGSIVDGMMTQRASEMRAMPMDELLALESVAVPSHSDDRYWKSLRAVVTDASVLTLKNGLGQLTDAMAAQLRSSRNVEVVTGTEVTSLSQNPKTQDLTIGFGKNESRTHNRVIATHAPSSLARQIQNTKVGVVPSDTIRDLGQNNYAVTVMVVNLYYEDPDLVPVEGFGYLLPSSVPFEQNPERALGVIFGSQSSEGQDTAPGTKLTVIMGGHLWDGWSESDYPDPDKAIEMAQALLHRHLGIKTAPSVARARLLRDAIPQYTVGHLSRMKELSHSVRSDFHKRLTLAGAWYGTVGIGVVDCIRQGYLASSYGVGSKKLGPGNSRRPWTKHDFHNWELEGGIATSPVRFDNVHVTERQHY	very high levels of resistance	–	about 10^5	yes	yes
